Reference: US20230312741A1 (published 2023)
Positions count from the first letter of the chain named.

T1: human CD73 expressed on the cell surface (human, UniProt P21589 27-549)
T1 sequence: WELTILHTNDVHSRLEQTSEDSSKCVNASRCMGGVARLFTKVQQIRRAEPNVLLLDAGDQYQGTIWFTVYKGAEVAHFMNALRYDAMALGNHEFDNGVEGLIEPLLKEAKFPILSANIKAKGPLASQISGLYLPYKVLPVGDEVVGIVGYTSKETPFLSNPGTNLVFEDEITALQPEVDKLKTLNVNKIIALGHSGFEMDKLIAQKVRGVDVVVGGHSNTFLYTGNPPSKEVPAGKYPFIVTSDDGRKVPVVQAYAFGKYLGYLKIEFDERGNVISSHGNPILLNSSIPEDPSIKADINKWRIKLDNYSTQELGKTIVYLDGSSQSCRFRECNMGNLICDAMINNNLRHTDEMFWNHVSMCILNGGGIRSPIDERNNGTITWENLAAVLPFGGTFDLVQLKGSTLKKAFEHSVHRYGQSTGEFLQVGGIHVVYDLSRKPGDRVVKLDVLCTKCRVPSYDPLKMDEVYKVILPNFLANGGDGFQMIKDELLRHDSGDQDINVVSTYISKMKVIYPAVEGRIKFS

T2: human CD73 antigen (human, UniProt P21589 27-547)
T2 construct: also called Biotinylated Human CD73
T2 sequence (looked up): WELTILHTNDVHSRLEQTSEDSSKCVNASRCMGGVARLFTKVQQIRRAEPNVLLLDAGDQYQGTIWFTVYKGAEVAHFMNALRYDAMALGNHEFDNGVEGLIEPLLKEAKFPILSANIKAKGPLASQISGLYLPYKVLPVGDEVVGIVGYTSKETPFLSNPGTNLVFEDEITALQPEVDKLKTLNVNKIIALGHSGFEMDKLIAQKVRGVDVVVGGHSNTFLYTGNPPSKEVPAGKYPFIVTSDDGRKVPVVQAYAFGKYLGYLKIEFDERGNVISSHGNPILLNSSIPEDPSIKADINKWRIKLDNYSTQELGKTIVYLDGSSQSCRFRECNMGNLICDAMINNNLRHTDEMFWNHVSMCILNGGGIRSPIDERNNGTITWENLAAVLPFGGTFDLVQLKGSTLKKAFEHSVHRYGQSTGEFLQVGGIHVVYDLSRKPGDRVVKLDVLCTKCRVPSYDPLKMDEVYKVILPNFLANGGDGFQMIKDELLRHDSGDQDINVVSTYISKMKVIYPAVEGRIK

T3: cynomolgus monkey CD73 antigen (cynomolgus monkey, UniProt A0A2K5V5U7 27-547)
T3 construct: also called Biotinylated cynomolgus monkey CD73
T3 sequence: T2 sequence (looked up) with M199T, T350A, V466I

B1: ADI-34101 (antibody, human IgG4 S228P, kappa, F234A L235A, V domains shown)
VH: QVQLVESGGGVVQPGRSLRLSCAASGFTFSSYGMHWVRQAPGKGLEWVAVISYEGSNKYYADSVKGRFTISRDNSKNTLYLQMNSLRAEDTAVYYCARSRYDWSLFDIWGQGTMVTVSS
VL: EIVLTQSPGTLSLSPGERATLSCRASQSVSSSYLAWYQQKPGQAPRLLIYGASSRATGIPDRFSGSGSGTDFTLTISRLEPEDFAVYYCQQYVLYPFTFGGGTKVEIKR
notes: Parental antibody
B2: ADI-34095 (antibody, human IgG4 S228P, kappa, F234A L235A, V domains shown)
VH: QVQLVESGGGVVQPGRSLRLSCAASGFTFSSYGMHWVRQAPGKGLEWVAVISYEGSNKYYADSVKGRFTISRDNSKNTLYLQMNSLRAEDTAVYYCARGGARYPIAFDIWGQGTMVTVSS
VL: DIQLTQSPSSVSASVGDRVTITCRASQDISSWLAWYQQKPGKAPKLLIYAASSLQSGVPSRFSGSGSGTDFTLTISSLQPEDFATYYCQQANDFPITFGGGTKVEIKR
B3: ADI-34074 (antibody, human IgG4 S228P, kappa, F234A L235A, V domains shown)
VH: EVQLVESGGGLVQPGRSLRLSCAASGFTFDDYAMHWVRQAPGKGLEWVSGISWSSGSIGYADSVKGRFTISRDNAKNSLYLQMNSLRAEDTAVYYCAKGKYLPTGSVDYWGQGTLVTVSS
VL: EIVLTQSPGTLSLSPGERATLSCRASQSVSSSYLAWYQQKPGQAPRLLIYGASSRATGIPDRFSGSGSGTDFTLTISRLEPEDFAVYYCQQYYDYPPITFGGGTKVEIKR
notes: Parental antibody; also called AD-34074
B4: ADI-34104 (antibody, human IgG4 S228P, kappa, F234A L235A, V domains shown)
VH: QVQLQESGPGLVKPSETLSLTCAVSGYSISSGYYWGWIRQPPGKGLEWIGSIYHSGSTYYNPSLKSRVTISVDTSKNQFSLKLSSVTAADTAVYYCARASIYTPPPEYFQHWGQGTLVTVSS
VL: DIQMTQSPSTLSASVGDRVTITCRASQSISSWLAWYQQKPGKAPKLLIYDASSLESGVPSRFSGSGSGTEFTLTISSLQPDDFATYYCQQSRIYSTFGGGTKVEIKR
notes: Parental antibody
B5: Oleclumab (antibody, V domains shown)
VH: EVQLLESGGGLVQPGGSLRLSCAASGFTFSSYAYSWVRQAPGKGLEWVSAISGSGGRTYYADSVKGRFTISRDNSKNTLYLQMNSLRAEDTAVYYCARLGYGRVDEWGRGTLVTVSS
VL: QSVLTQPPSASGTPGQRVTISCSGSLSNIGRNPVNWYQQLPGTAPKLLIYLDNLRLSGVPDRFSGSKSGTSASLAISGLQSEDEADYYCATWDDSHPGWTFGGGTKLTVL
B6: ADI-34086 (antibody, human IgG4 S228P, kappa, F234A L235A, V domains shown)
VH: EVQLLESGGGLVQPGGSLRLSCAASGFTFSNYAMSWVRQAPGKGLEWVSAISGSGGSTYYADSVKGRFTISRDNSKNTLYLQMNSLRAEDTAVYYCARGGPYGSGSYWDTFDYWGQGTLVTVSS
VL: EIVMTQSPATLSVSPGERATLSCRASQSVSSNLAWYQQKPGQAPRLLIYGASTRATGIPARFSGSGSGTEFTLTISSLQSEDFAVYYCQQYTNHYTFGGGTKVEIKR
notes: Parental antibody
B7: ADI-34071 (antibody, human IgG4 S228P, kappa, F234A L235A, V domains shown)
VH: EVQLVESGGGLVQPGRSLRLSCAASGFTFDDYAMHWVRQAPGKGLEWVSGISWSSGSIGYADSVKGRFTISRDNAKNSLYLQMNSLRAEDTAVYYCAKDRRYGLTYGMDVWGQGTTVTVSS
VL: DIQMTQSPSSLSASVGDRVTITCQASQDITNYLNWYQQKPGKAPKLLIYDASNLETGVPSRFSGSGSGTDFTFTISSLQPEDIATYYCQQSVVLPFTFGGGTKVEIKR
notes: Parental antibody from the yeast library
B8: scfv fragment of ADI-37543 (scFv, V domains shown)
VH: B4 VH with G36A, Y53F, S57F, Y59F
VL: DIQMTQSPSTLSASVGDRVTITCRASQSISSWLAWYQQKPGKAPKLLIYDASSLESGVPSRFSGSGSGTEFTLTISSLQPDDFATYYCQQSRIYSTFGGGTKVEIK

Target: T1, human CD73 expressed on the cell surface
Test: cell-based or functional assay

Binder	CD73 enzymatic activity assay IC50 (Calu-6 cells, CellTiter-Glo)
B1	0.153 µg/mL
B2	0.279 µg/mL
B3	0.476 µg/mL
B4	0.142 µg/mL
B5	0.167 µg/mL
B6	0.089 µg/mL
B7	0.171 µg/mL

Target: T1, human CD73 expressed on the cell surface
Test: cell-based or functional assay
Remark: another data set of the same source

Binder	IC50 for inhibiting the enzymatic activity of CD73 (Calu-6 cells)
B5	0.177 µg/mL

Target: T2, human CD73 antigen
Test: ForteBio BLI; antigen on sensor, 100 nM scFv; monovalent; 1:1 model
Procedure: (§1) Human or cynomolgus monkey CD73 antigen protein was loaded on-line to the AHQ sensor (ForteBio) for ForteBio affinity measurement. […] Kinetic analysis was performed by using a 1:1 binding model.

Binder	Kd
B8	3.85 nM

Target: T3, cynomolgus monkey CD73 antigen
Test: as above
Procedure: as §1

Binder	Kd
B8	2.99 nM

Target: T2, human CD73 antigen
Test: ForteBio BLI; IgG on AHQ sensor, 100 nM antigen; bivalent; 1:1 model
Procedure: (§2) Briefly, the sensor was equilibrated off-line in assay buffer for 30 min, then on-line detection was carried out for 60 sec to establish a baseline. The purified antibody obtained as described above was loaded on-line to the AHQ sensor (ForteBio) for ForteBio affinity determination. The sensor loaded with the antibody was then exposed to 100 nM of human or cynomolgus monkey antigen for 5 minutes, after which the sensor was transferred to assay buffer for dissociation for 5 minutes to determine the dissociation rate. Kinetic analysis was performed by using a 1:1 binding model.

Binder	Kd
B1	1.07 nM
B3	2.12 nM
B4	0.847 nM
B5	0.948 nM
B6	1.23 nM
B7	0.892 nM

Target: T3, cynomolgus monkey CD73 antigen
Test: as above
Procedure: as §2

Binder	Kd
B1	1.57 nM
B3	3.13 nM
B5	0.96 nM
B6	1.9 nM
B7	1.34 nM
